The results in this text go back to publication PMC9482650, “Quantitative fragmentomics allow affinity mapping of interactomes” (Nature Communications, 2022).

Some targets named below: DLG2_3, Q15700; DLG5_1, Q8TDM6; GOPC, Q9HD26; GRASP, Q7Z6J2; GRID2IP_2, A4D2P6; GRIP2_4, Q9C0E4; Inadl_1, Q8NI35; Inadl_2, Q8NI35; LAP2, Q96RT1; MAGI1_2, Q96QZ7; SCRIB_2, Q14160; TJP1_2, Q07157.
Common to all, as to test: holdup assay
Set-up in all cases: key: below the threshold = too weak to quantify, mostly under pKd 3.1 to 4
Conditions in all cases: plain residues with an end cap or a label only (N-terminal biotin on a linker: ado-ado)

The next assay addresses T1, APBA1_1, Q02410.
T1 sequence (Q02410 651-752, limits assumed, looked up): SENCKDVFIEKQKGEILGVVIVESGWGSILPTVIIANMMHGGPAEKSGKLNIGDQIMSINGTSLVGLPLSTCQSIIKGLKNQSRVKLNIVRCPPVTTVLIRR

In a further assay the target is T2, APBA2_2, Q99767.
T2 sequence (Q99767 654-744, limits assumed, looked up): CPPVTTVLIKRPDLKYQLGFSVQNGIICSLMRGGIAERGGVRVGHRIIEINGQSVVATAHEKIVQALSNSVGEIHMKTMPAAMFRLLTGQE

In the next assay the target is T3, ARHGEF11, O15085.
T3 sequence (O15085 42-136, limits assumed, looked up): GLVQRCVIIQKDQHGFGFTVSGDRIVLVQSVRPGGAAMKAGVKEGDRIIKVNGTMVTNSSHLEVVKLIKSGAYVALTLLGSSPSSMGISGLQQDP

The target in another assay is T4, DLG3_2, Q92796.
T4 sequence (Q92796 221-321, limits assumed, looked up): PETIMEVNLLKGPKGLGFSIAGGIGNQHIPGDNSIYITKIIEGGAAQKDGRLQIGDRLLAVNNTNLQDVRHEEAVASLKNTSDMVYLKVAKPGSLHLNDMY

A further assay addresses T5, DLG3_3, Q92796.
T5 sequence (Q92796 374-475, limits assumed, looked up): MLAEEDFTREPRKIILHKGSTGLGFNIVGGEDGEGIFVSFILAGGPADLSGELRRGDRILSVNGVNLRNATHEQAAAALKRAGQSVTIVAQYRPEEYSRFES

The target in the next assay is T6, GRIP1_2, Q9Y3R0.
T6 sequence (Q9Y3R0 145-248, limits assumed, looked up): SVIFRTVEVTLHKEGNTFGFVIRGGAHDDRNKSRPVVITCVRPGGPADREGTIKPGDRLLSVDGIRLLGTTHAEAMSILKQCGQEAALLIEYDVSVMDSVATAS

A further assay has as its target T7, GRIP1_3, Q9Y3R0.
T7 sequence (Q9Y3R0 247-346, limits assumed, looked up): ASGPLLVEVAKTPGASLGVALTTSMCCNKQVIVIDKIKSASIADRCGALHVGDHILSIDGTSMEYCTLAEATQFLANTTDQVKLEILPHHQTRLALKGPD

The target of another assay is T8, HTRA3, P83110.
T8 sequence (P83110 354-453, limits assumed, looked up): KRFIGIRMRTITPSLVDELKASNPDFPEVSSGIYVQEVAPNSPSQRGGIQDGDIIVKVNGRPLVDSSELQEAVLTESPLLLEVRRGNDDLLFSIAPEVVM

The target of a further assay is T9, MPDZ_12, O75970.
T9 sequence (O75970 1857-1958, limits assumed, looked up): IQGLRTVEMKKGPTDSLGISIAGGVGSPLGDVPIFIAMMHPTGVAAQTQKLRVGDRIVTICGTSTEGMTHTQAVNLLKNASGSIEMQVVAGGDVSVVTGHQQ

For a further assay, the target named is T10, MPP6, Q9NZW5.
T10 sequence (Q9NZW5 125-219, limits assumed, looked up): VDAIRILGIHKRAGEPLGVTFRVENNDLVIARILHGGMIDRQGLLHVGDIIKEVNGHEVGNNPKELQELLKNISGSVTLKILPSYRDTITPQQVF

The next assay concerns the target T11, PARD3B_1, Q8TEW8.
T11 sequence (Q8TEW8 196-299, limits assumed, looked up): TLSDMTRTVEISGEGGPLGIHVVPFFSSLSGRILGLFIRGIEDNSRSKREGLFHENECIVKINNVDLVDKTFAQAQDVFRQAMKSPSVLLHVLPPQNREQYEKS

Another assay concerns the target T12, SHANK1, Q9Y566.
T12 sequence (Q9Y566 658-767, limits assumed, looked up): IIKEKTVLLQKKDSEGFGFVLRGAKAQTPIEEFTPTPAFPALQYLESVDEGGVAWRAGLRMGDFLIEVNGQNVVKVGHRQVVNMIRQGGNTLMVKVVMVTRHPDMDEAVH

Usually pKd stands for −log10 of the Kd, conventionally taken in molar units.

Sequence of MAGI1_2, Q96QZ7 (Q96QZ7 456-580): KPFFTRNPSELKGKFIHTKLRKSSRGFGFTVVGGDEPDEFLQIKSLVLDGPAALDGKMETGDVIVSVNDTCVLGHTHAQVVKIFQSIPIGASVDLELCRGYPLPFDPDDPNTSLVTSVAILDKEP
Sequence of TJP1_2, Q07157 (Q07157 181-274): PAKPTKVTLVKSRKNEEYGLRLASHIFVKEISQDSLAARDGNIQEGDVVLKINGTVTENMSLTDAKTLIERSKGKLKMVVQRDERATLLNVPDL
Sequence of GRID2IP_2, A4D2P6 (A4D2P6 272-370): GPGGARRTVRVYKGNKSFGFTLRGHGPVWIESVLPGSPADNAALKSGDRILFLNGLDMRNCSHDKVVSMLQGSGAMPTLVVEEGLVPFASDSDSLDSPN
Sequence of DLG5_1, Q8TDM6 (Q8TDM6 617-713): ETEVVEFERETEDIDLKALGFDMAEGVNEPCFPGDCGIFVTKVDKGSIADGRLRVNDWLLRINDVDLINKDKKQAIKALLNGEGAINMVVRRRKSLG
Sequence of GRASP, Q7Z6J2 (Q7Z6J2 96-193): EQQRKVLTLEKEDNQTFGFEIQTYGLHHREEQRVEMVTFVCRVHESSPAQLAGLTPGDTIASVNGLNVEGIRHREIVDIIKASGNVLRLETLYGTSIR
Sequence of LAP2, Q96RT1 (Q96RT1 other isoform, or with tags, fused parts or gaps): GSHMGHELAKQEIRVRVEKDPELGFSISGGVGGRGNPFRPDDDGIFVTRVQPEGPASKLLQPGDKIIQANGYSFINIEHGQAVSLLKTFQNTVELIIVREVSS
Sequence of SCRIB_2, Q14160 (Q14160 857-960): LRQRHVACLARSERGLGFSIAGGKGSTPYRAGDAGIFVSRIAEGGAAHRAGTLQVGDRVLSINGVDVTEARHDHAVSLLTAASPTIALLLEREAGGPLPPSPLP
Sequence of Inadl_2, Q8NI35 (Q8NI35 238-335): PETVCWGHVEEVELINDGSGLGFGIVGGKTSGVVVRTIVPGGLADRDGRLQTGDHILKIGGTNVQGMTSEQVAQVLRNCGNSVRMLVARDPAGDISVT
Sequence of Inadl_1, Q8NI35 (Q8NI35 113-229): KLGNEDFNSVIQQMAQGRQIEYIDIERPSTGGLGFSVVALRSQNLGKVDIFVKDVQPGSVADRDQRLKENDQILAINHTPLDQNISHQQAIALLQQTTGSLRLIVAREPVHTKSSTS
Sequence of GRIP2_4, Q9C0E4 (Q9C0E4 446-548): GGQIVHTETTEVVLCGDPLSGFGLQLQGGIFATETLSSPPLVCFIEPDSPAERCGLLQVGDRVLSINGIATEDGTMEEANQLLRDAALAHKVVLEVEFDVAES

PASAKGPLGV [CLDN19, Q8N6F1]: the pKd result in the assay with APBA1_1, Q02410 is “below the threshold”; in the assay with APBA2_2, Q99767, “below the threshold”; with ARHGEF11, O15085 it was “below the threshold”; with DLG2_3, Q15700, “below the threshold”; in the assay with DLG3_2, Q92796, “below the threshold”; with DLG3_3, Q92796, “below the threshold”. Besides, the pKd entry in the assay with DLG5_1, Q8TDM6 is reported as “below the threshold”; in the assay with GOPC, Q9HD26, “below the threshold”; with GRASP, Q7Z6J2, “below the threshold”; in the assay with GRID2IP_2, A4D2P6, “below the threshold”; in the assay with GRIP1_2, Q9Y3R0, “below the threshold”; with GRIP1_3, Q9Y3R0, “below the threshold”. Moreover, the pKd result in the assay with GRIP2_4, Q9C0E4 is “below the threshold”; in the assay with HTRA3, P83110, “below the threshold”; with Inadl_1, Q8NI35, “below the threshold”; with Inadl_2, Q8NI35, “below the threshold”; with LAP2, Q96RT1, “below the threshold”; in the assay with MAGI1_2, Q96QZ7, “below the threshold”. For the same molecule, the pKd result with MPDZ_12, O75970 is reported as “below the threshold”; in the assay with MPP6, Q9NZW5, “below the threshold”; in the assay with PARD3B_1, Q8TEW8 it was “below the threshold”; in the assay with SCRIB_2, Q14160, “below the threshold”; with SHANK1, Q9Y566 it was “below the threshold”; with TJP1_2, Q07157, “below the threshold”.

Take RELVMRVTTV [MARCHF4, Q9P2E8]: the negative-log Kd (pKd) result was “below the threshold” in the assay with APBA1_1, Q02410; “below the threshold” with APBA2_2, Q99767; 4.71 with ARHGEF11, O15085; 4.93 with DLG2_3, Q15700; 5.22 with DLG3_2, Q92796; 4.63 in the assay with DLG3_3, Q92796. For the same molecule, the pKd entry is “below the threshold” with DLG5_1, Q8TDM6; 5.03 with GOPC, Q9HD26; 4.63 with GRASP, Q7Z6J2; 4.06 in the assay with GRID2IP_2, A4D2P6; “below the threshold” with GRIP1_2, Q9Y3R0; “below the threshold” in the assay with GRIP1_3, Q9Y3R0. In addition, the pKd entry was “below the threshold” in the assay with GRIP2_4, Q9C0E4; “below the threshold” with HTRA3, P83110; “below the threshold” with Inadl_1, Q8NI35; “below the threshold” in the assay with Inadl_2, Q8NI35; 3.79 with LAP2, Q96RT1; 4.81 with MAGI1_2, Q96QZ7. Besides, the pKd result is “below the threshold” with MPDZ_12, O75970; 3.59 in the assay with MPP6, Q9NZW5; “below the threshold” with PARD3B_1, Q8TEW8; 4.28 with SCRIB_2, Q14160; 3.58 with SHANK1, Q9Y566; “below the threshold” with TJP1_2, Q07157.

Turning to QFTLRHWLKV [SLC6A3, Q01959], the pKd entry with APBA1_1, Q02410 is reported as “below the threshold”; with APBA2_2, Q99767, “below the threshold”; with ARHGEF11, O15085, “below the threshold”; with DLG2_3, Q15700 it was “below the threshold”; in the assay with DLG3_2, Q92796 it was “below the threshold”; with DLG3_3, Q92796, “below the threshold”. Besides, the pKd result was “below the threshold” with DLG5_1, Q8TDM6; 3.51 with GOPC, Q9HD26; 3.8 with GRASP, Q7Z6J2; “below the threshold” in the assay with GRID2IP_2, A4D2P6; “below the threshold” in the assay with GRIP1_2, Q9Y3R0; “below the threshold” in the assay with GRIP1_3, Q9Y3R0. Also, the negative logarithm of the Kd (pKd) entry is “below the threshold” with GRIP2_4, Q9C0E4; “below the threshold” in the assay with HTRA3, P83110; “below the threshold” with Inadl_1, Q8NI35; “below the threshold” with Inadl_2, Q8NI35; “below the threshold” with LAP2, Q96RT1; “below the threshold” with MAGI1_2, Q96QZ7. For the same molecule, the negative logarithm of the Kd (pKd) result in the assay with MPDZ_12, O75970 was “below the threshold”; with MPP6, Q9NZW5, “below the threshold”; with PARD3B_1, Q8TEW8, 3.87; with SCRIB_2, Q14160, “below the threshold”; with SHANK1, Q9Y566, “below the threshold”; in the assay with TJP1_2, Q07157, 4.19.

On to DSATVRTYSC [PPFIA1, Q13136], for which the pKd entry with APBA1_1, Q02410 is “below the threshold”; with APBA2_2, Q99767, “below the threshold”; with ARHGEF11, O15085, 3.66; in the assay with DLG2_3, Q15700, 3.73; with DLG3_2, Q92796, 4.08; in the assay with DLG3_3, Q92796, “below the threshold”. Besides, the pKd entry in the assay with DLG5_1, Q8TDM6 was “below the threshold”; with GOPC, Q9HD26 it was “below the threshold”; with GRASP, Q7Z6J2 it was 4.31; in the assay with GRID2IP_2, A4D2P6 it was 3.49; in the assay with GRIP1_2, Q9Y3R0 it was “below the threshold”; with GRIP1_3, Q9Y3R0, “below the threshold”. Also, the pKd entry is “below the threshold” with GRIP2_4, Q9C0E4; 4.65 with HTRA3, P83110; “below the threshold” in the assay with Inadl_1, Q8NI35; “below the threshold” with Inadl_2, Q8NI35; “below the threshold” in the assay with LAP2, Q96RT1; “below the threshold” in the assay with MAGI1_2, Q96QZ7. For the same molecule, the pKd entry in the assay with MPDZ_12, O75970 was “below the threshold”; with MPP6, Q9NZW5 it was “below the threshold”; in the assay with PARD3B_1, Q8TEW8, 3.57; with SCRIB_2, Q14160 it was “below the threshold”; with SHANK1, Q9Y566 it was “below the threshold”; with TJP1_2, Q07157, 3.48.
